In US10815297B2, “Antagonists of IL17C for the treatment of inflammatory disorders” (MorphoSys AG, priority 2011, dated 2020):

How the values were obtained:
Format in all cases: in vivo
[1] = tested on: mouse CIA model (DBA1/J mice); assay: Mouse collagen induced arthritis (CIA) model, preventative protocol; settings: 10 mg/kg, 3x week, i.p., day 21 to day 46
Protocol: (§1) DBA1/J mice (male, 6-7 weeks old, approx 20 gram) were obtained from Centre d'Elevage Regional Janvier (Laval, France). Mice were kept on a 12 hr light/dark cycle (0700-1900). Temperature was maintained at 22° C., and food and water were provided ad libitum.
One day before the experiment, CII solution (2 mg/mL) was prepared with 0.05 M acetic acid and stored at 4° C. Just before the immunization, equal volumes of adjuvant […] and CII were mixed by a homogenizer in a pre-cooled glass bottle in an ice water bath. Extra adjuvant and prolonged homogenization may be required if an emulsion is not formed. 0.1 mL of the emulsion was injected intradermally at the base of the tail of each mouse on day 1, a second booster intradermal injection (CII solution at 2 mg/mL in […] 0.1 mLemulsion) was performed on day 21. […]
(§2) Arthritis was scored according to the method of Khachigian 2006 (Collagen antibody-induced arthritis. (2006) Nature Protocols 1, 2512-6), Lin et al 2007 (supra); Nishida et al. 2004 (Histone deacetylase inhibitor suppression of autoantibody-mediated arthritis in mice via regulation of p16INK4a and p21(WAF1/Cip1) expression. Arthritis Rheum. 10: 3365-76); and Brand et al. 2007 (supra). […]

[2] = tested on: mouse CIA model (DBA1/J mice); assay: Mouse collagen induced arthritis (CIA) model, therapeutic protocol; settings: 10 mg/kg, 3x week, i.p., day 31 to day 46
Protocol: as §1
One day before the experiment, CII solution (2 mg/mL) was prepared with 0.05 M acetic acid and stored at 4° C. Just before the immunization, equal volumes of adjuvant […] and CII were mixed by a homogenizer in a pre-cooled glass bottle in an ice water bath. Extra adjuvant and prolonged homogenization may be required if an emulsion is not formed. 0.1 mL of the emulsion was injected intradermally at the base of the tail of each mouse on day 1, a second booster intradermal injection (CII solution at 2 mg/mL in […] 0.1 mLemulsion) was performed on day 21. This immunization method was modified from published methods (Brand et al, 2007, Collagen-induced arthritis. Nature Protocols; vol 2 (5): 1269-1275; Lin et al., 2007, Anti-rheumatic activities of histone deacetylase (HDAC) inhibitors in vivo in collagen-induced arthritis in rodents. Br J Pharmacol. April; 150 (7):829-31).
The therapeutic effects of the antibodies were tested in the mouse CIA model. Mice were randomly divided into equal groups and each group contained 10 mice. All mice were immunized on day 1 and boosted on day 21. Therapeutic dosing lasted from day 31 to day 46. The negative control group was treated with vehicle (PBS) and the positive control group with Enbrel (10 mg/kg, 3× week, i.p.). An antibody of interest was tested at 10 mg/kg, i.p. 3 times per week.
Anti-IL17C antibodies were administered i.p. three times a week at 10 mg/kg. […]
as §2

[3] = tested on: BALB/c female mice, LPS-induced acute lung neutrophilia; assay: Intranasal instillation of LPS, mouse model of acute lung neutrophilia; settings: single treatment 5 mg/kg i.p. 24 hours before LPS instillation; BAL 24 hours after LPS
Protocol: Two independent studies were conducted with one negative mAb and two positive mAbs in the intranasal instillation of Lipopolysaccharide (LPS) mouse model of acute lung neutrophilia, a model which mimics some relevant aspects of COPD (Chronic Obstructive Pulmonary Disease). The effects were measured by Broncho Alveolar Lavage (BAL) inflammatory cell counting.
Several groups of mice were treated with different antibodies and Dexamethasone and compared to the mice subjected to LPS only.
BALB/c female mice from Harlan (France) were used in the study. Mice weight was around 20 g.
Mice were anesthetized by isoflurane inhalation. During the breathing, LPS was instilled intranasally. After 24 h, mice were anesthetized intra-peritoneally (IP) and Broncho Alveolar Lavage procedure was performed. Mice were anesthetized by injection of anaesthetic solution of 0.1 mL per 10 g of the mouse weight. The anaesthetic solution was composed of 18 ml 0.9% NaCl, 0.5 mL xylazine (5 mg/Kg) and 1.5 mL ketamine (75 mg/Kg).
The trachea was exposed through midline incision and canulated (with a mice catheter). BAL was performed twice using 1 mL of sterile PBS buffer. […] The cells were counted using a cell counter (Vet abc, France). […]
For all groups, BAL was performed 24 hours after LPS administration and cell counts were measured.
The results were analyzed using Student t-test. […]

B1: MOR12762: anti-mouse IL17C HuCAL antibody; CDRs SEQ ID NO: 171-176, VL 177, VH 178; human/mouse chimeric IgG2a (antibody, V domains shown)
VH: EVQLVQSGAEVKKPGESLKISCKGSGYSFNNYWIAWVRQMPGKGLEWMGFIYPSNSATQYSPSFQGQVTISADKSISTAYLQWSSLKASDTAMYYCARDNEYSDSYFDVWGQGTLVTVSS
VL: DIVLTQSPATLSLSPGERATLSCRASQIVSSYLAWYQQKPGQAPRLLIYDASSRATGIPARFSGSGSGTDFTLTISSLEPEDFAVYYCQQSEQVPTTFGQGTKVEIKRT
modifications: mouse IgG2a constant regions; VH; VL
- inhibition of bone degradation / bone erosion (Larsen score) [1]: significant inhibition
- inhibition of inflammation (clinical score) [1]: significant inhibition
- inhibition of inflammation / disease progression (clinical score) [2]: significant inhibition
- inhibition of the recruitment of inflammatory cells into the BALF [3]: inhibited significantly
